Assay results reported in article PMC3515450, “Mechanistic and Structural Understanding of Uncompetitive Inhibitors of Caspase-6” (PLoS ONE, 2012).
* marks the point of attachment. AMC = Cc1cc(=O)oc2cc(N*)ccc12; R110 = Rhodamine110 dye

Key:
caspase-6 = biological target: T1, caspase-6 (Homo sapiens, UniProt P55212); assay: Caspase-6 enzymatic assay with fluorogenic tetrapeptide substrates; type: biochemical
T1 construct: Residues 24-179 and 194-293 from caspase-6 cDNA (Origene) were cloned into pET-24b and pET-23b vectors; 6x histidine tag (C); made in house; host or cells: E. coli BL21 (DE3) pLysS
T1 sequence (P55212 24-179): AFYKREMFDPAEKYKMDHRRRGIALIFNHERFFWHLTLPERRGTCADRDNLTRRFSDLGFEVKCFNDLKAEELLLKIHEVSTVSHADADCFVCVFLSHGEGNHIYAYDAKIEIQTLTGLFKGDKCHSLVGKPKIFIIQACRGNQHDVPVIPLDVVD
T1 sequence (P55212 194-293): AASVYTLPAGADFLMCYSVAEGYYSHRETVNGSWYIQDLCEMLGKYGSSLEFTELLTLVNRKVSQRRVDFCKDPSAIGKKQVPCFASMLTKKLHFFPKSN
Method: The in vitro enzymatic caspase assays utilize synthetic tetrapeptide substrates labeled with the fluorophores Rhodamine110 (R110) or 7-amino-4-methylcoumarin (AMC) at the P1 aspartic acid (Asp) residue. All assays were performed in 384-well plates in 12 µL reaction volume consisting of enzyme, substrate and indicated concentration of inhibitor or DMSO in assay buffer (50 mM HEPES [pH 7.0], 25 mM MgSO4, 0.5 mM EGTA, 5 mM Glutathione (GSH), 0.01% Triton X-100 containing 0.1% Bovine Gamma Globulin (BGG)). All inhibitors were serially diluted in 100% DMSO prior to dilution in assay buffer and transfer to assay plate. DMSO was diluted into assay buffer similarly for blank wells (no enzyme or compound) and final DMSO concentration was 1%. The concentration of caspase-6 used in enzymatic reactions typically varied between 1–10 nM depending on substrate used. Unless otherwise indicated, substrate concentration was within 3-fold of the determined Kmapparent (5 µM (Ac-VEID)2R110 [Kmapp = 8 µM]; 5 µM (Ac-DEVD)2R110 [Kmapp = 8 µM]; 25 µM (Ac-IETD)2R110 [Kmapp = 70 µM]; 25 µM (Ac-WEHD)2R110 [Kmapp = 70 µM]; 10µM Ac-VEID-AMC [Kmapp = 16µM]; 5 µM Ac-VEID-R110 [Kmapp = 8 µM]). The concentration of substrate utilized in selectivity assays for each caspase isoform was also held as close to Kmapparent as reasonably achievable (Table S1). Caspases-3 and -7 were expressed and purified at Genentech as the catalytic domain consisting of large p20 and small p10 subunits without prodomain. For all caspase enzymatic assays, the reaction plate was incubated at room temperature for 40 minutes and then read on Envision (Perkin Elmer) fluorescent plate reader at excitation/emission wavelengths of 485/535 nm (R110) or 350/450 nm (AMC). […]
The endpoint fluorescent emission (RFU) in each well was plotted as a function of inhibitor concentration and the 50% inhibition (IC50) values were determined using a nonlinear least squares fit of the data to a four parameter equation using Prism 5.0 software (GraphPad Software, San Diego, CA). […] Ki values for Compound 3 were calculated using this equation: Ki = IC50/(Km/[S] +1). Concentration-response curves for each inhibitor were normalized to zero and 100% based on no enzyme or DMSO control, respectively. For steady-state kinetic analysis, initial reaction velocity (RFU/minute) was plotted against substrate concentration at each inhibitor concentration and the data was fit to a hyperbolic Michaelis-Menten model using Prism 5.0 software. Km (µM) and Vmax (RFU/minute) were calculated by using this equation: v = Vmax • [S]/Km+[S] where v = initial reaction velocity at indicated substrate concentration (S). Vmax values were normalized to zero and 100% based on no enzyme or DMSO control, respectively.
Expression and purification of caspase-6 for enzymatic assays: Human caspase-6 was expressed as the mature enzyme using a split construct. Residues 24-179 and 194-293 from caspase-6 cDNA (Origene) were cloned into pET-24b and pET-23b vectors (Novagen) respectively; the small subunit contained a C-terminal 6x histidine tag. Vectors were cotransfected into the E.coli strain BL21 (DE3) pLysS (Stratagene). Cells were grown from a single colony in 6L of 2xYT supplemented with ampicillin and kanamycin at 37 °C to an OD of ~ 0.5 and were subsequently cooled to 16 °C before overnight induction with 0.2 mM IPTG. Cells were harvested by centrifugation, resuspended in 100 mM NaCl, 100 mM Tris, pH 8.0, and lysed.

(Ac-VEID)2R110 = tested on: T2, (Ac-VEID)2R110; assay: SPR; as a2, but substrates (10 µM) mixed with compound 3 (1 µM) and injected together over the captured caspase-6 surfaces; apparent
T2 sequence: VEID

caspase-3 = biological target: T3, caspase-3 (Homo sapiens, UniProt P42574); assay: Caspase-3 enzymatic assay with divalent R110 substrates; type: biochemical; conditions: caspase-3
T3 construct: as the catalytic domain consisting of large p20 and small p10 subunits without prodomain; made in house
T3 sequence (P42574 29-175 limits assumed): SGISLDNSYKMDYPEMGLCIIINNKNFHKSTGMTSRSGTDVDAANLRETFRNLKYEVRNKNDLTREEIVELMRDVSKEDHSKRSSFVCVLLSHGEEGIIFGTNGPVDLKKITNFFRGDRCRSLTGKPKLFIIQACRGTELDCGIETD
T3 sequence (P42574 176-277 limits assumed): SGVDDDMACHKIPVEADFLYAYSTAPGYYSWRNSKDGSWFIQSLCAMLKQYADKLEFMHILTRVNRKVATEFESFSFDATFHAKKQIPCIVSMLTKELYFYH
Method: The in vitro enzymatic caspase assays utilize synthetic tetrapeptide substrates labeled with the fluorophores Rhodamine110 (R110) or 7-amino-4-methylcoumarin (AMC) at the P1 aspartic acid (Asp) residue. All assays were performed in 384-well plates in 12 µL reaction volume consisting of enzyme, substrate and indicated concentration of inhibitor or DMSO in assay buffer (50 mM HEPES [pH 7.0], 25 mM MgSO4, 0.5 mM EGTA, 5 mM Glutathione (GSH), 0.01% Triton X-100 containing 0.1% Bovine Gamma Globulin (BGG)). All inhibitors were serially diluted in 100% DMSO prior to dilution in assay buffer and transfer to assay plate. DMSO was diluted into assay buffer similarly for blank wells (no enzyme or compound) and final DMSO concentration was 1%. The concentration of caspase-6 used in enzymatic reactions typically varied between 1–10 nM depending on substrate used. Unless otherwise indicated, substrate concentration was within 3-fold of the determined Kmapparent (5 µM (Ac-VEID)2R110 [Kmapp = 8 µM]; 5 µM (Ac-DEVD)2R110 [Kmapp = 8 µM]; 25 µM (Ac-IETD)2R110 [Kmapp = 70 µM]; 25 µM (Ac-WEHD)2R110 [Kmapp = 70 µM]; 10µM Ac-VEID-AMC [Kmapp = 16µM]; 5 µM Ac-VEID-R110 [Kmapp = 8 µM]). The concentration of substrate utilized in selectivity assays for each caspase isoform was also held as close to Kmapparent as reasonably achievable (Table S1). Caspases-3 and -7 were expressed and purified at Genentech as the catalytic domain consisting of large p20 and small p10 subunits without prodomain. For all caspase enzymatic assays, the reaction plate was incubated at room temperature for 40 minutes and then read on Envision (Perkin Elmer) fluorescent plate reader at excitation/emission wavelengths of 485/535 nm (R110) or 350/450 nm (AMC).
The endpoint fluorescent emission (RFU) in each well was plotted as a function of inhibitor concentration and the 50% inhibition (IC50) values were determined using a nonlinear least squares fit of the data to a four parameter equation using Prism 5.0 software (GraphPad Software, San Diego, CA). […]

Molecule	Kmapp of substrate (caspase-6; caspase-6) [µM]	apparent KD with compound 3 (dissociation of both compound and substrate) ((Ac-VEID)2R110)	further results
mature C163A-caspase-6 with C-terminal avi-tag	–	an apparent KD of ∼200 nM	–
COc1ccc(-c2cc(C(=O)NC(Cc3ccccc3)C(=O)O)c(C)o2)cc1OC (centres unmarked) [Compound 2]	–	–	binding efficiency index (BEI; pIC50/molecular weight) (caspase-6; caspase-6, (VEID)2R110): 11.5; IC50 (caspase-6; caspase-6 cleavage of (VEID)2R110 substrate, read-out: IC50): 20 µM
apo-caspase-6 with C-terminal avi-tag, biotinylated	–	an apparent KD of ∼200 nM	–

Now from value to molecule, other results behind:

Kmapp of substrate (caspase-6; caspase-6) [µM]	Molecule	apparent KD with compound 3 (dissociation of both compound and substrate) ((Ac-VEID)2R110)	further results
16	Ac-VEID-AMC: monovalent VEID substrate in which R110 is replaced by amino-methyl coumarin (Ac-VEID-{AMC}; SMILES CC[C@H](C)[C@H](NC(=O)[C@H](CCC(=O)O)NC(=O)[C@@H](NC(C)=O)C(C)C)C(=O)N[C@@H](CC(=O)O)C(=O)Nc1ccc2c(C)cc(=O)oc2c1) [reference compound]	–	–
8	(VEID)2R110: Rhodamine110 dye conjugated to two valine-glutamate-isoleucine-aspartate tetrapeptides; fluorogenic substrate (Ac-VEID-R110; also: two VEID chains on one R110 dye) [reference compound]	–	Kcat of substrate (caspase-6; caspase-6, kcat = Vmax/[E]): 0.11 s⁻¹; Kmapp of substrate (caspase-3): 8 µM
